Experimental data as given in US20210324075A1 (ARCH ONCOLOGY, published 2021).

T1: mouse CD47 (mouse, UniProt Q61735 19-303)
T1 construct: whole, on cells; also called CD47 on murine RBCs (mRBCs)
T1 sequence (looked up): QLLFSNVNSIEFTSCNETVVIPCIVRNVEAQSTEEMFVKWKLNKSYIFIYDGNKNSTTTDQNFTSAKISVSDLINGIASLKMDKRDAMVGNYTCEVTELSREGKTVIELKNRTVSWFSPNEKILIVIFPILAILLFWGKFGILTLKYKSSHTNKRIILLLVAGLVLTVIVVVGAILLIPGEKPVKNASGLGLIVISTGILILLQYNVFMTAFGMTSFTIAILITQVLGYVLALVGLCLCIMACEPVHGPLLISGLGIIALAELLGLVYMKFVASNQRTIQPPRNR

T2: pig CD47 (pig, UniProt Q9GKE8 19-303)
T2 construct: whole, on cells; also called CD47 on pig RBCs
T2 sequence (looked up): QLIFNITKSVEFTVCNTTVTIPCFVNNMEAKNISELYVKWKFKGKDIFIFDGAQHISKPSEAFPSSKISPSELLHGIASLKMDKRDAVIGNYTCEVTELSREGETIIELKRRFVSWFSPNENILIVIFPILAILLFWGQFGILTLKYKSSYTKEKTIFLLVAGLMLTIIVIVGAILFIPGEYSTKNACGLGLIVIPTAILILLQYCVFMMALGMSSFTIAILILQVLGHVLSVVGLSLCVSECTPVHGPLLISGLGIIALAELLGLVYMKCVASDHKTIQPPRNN

T3: rat CD47 (rat, UniProt P97829 19-303)
T3 construct: whole, on cells; also called CD47 on rat RBCs
T3 sequence (looked up): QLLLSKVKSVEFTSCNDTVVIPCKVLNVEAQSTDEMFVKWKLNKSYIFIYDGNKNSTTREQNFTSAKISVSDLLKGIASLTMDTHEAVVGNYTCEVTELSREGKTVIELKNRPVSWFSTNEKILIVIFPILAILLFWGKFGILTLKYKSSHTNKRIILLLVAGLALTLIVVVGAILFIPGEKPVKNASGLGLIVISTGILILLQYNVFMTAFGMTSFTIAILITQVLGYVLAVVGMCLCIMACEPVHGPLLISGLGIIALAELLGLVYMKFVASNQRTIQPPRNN


How the values were obtained:
dog CD47 = molecular target: T4, dog CD47 (dog); assay: flow cytometry on dog RBCs, apparent affinity by non-linear fit of median fluorescence
T4 construct: whole, on cells; also called CD47 on dog RBCs

mouse CD47 = molecular target: T1, mouse CD47; assay: flow cytometry on mouse RBCs, apparent affinity by non-linear fit of median fluorescence
Experimental: (§1) Binding activities of murine mAbs to mouse CD47 on murine RBCs (mRBCs) and human CD47 on human RBCs (hRBCs) were determined using flow cytometry. RBCs were incubated for 60 min on at 37° C. with various concentrations of the chimeric or humanized antibodies in a solution of phosphate buffered saline, pH 7.2, 2.5 mM EDT A (PBS+E). Cells were then washed with cold PBS+E and incubated for an additional hour on ice with a FITC labeled goat-anti-mouse antibody (Jackson Immuno Research Labs, West Grove, Pa.) in PBS +E. Cells were washed with PBS+E, antibody binding analyzed using a C6 Accuri How Cytometer (Becton Dickinson) and apparent binding affinities determined by non-linear fit (Prism GraphPad software) of the median fluorescence intensities at the various antibody concentrations.

human CD47 [1] = molecular target: T5, human CD47 (human, UniProt Q08722 19-292); assay: flow cytometry on human RBCs, apparent affinity by non-linear fit of median fluorescence
T5 construct: On human RBCs, on OV10 cells transfected with human CD47 (OV10-hCD47) and on Jurkat T cells; also called hCD47; integrin-associated protein (IAP)
T5 sequence (Q08722 other isoform, or with tags, fused parts or gaps limits assumed): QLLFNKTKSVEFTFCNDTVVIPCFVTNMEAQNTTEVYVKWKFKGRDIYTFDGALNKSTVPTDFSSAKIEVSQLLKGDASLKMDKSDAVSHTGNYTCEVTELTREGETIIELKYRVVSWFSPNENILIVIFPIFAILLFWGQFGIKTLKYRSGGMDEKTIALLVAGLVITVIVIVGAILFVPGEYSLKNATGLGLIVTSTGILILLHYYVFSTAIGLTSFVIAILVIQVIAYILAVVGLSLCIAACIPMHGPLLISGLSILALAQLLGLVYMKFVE
Experimental: as §1

pig CD47 = molecular target: T2, pig CD47; assay: flow cytometry on pig RBCs, apparent affinity by non-linear fit of median fluorescence
human CD47 [2] = molecular target: T5, human CD47; assay: flow cytometry on human RBCs and cell-based ELISA on OV10-hCD47 cells
Experimental: as §1, with “humanized” for “murine”, “to” for “to mouse CD47 on murine RBCs (mRBCs) and”, “RBCs” for “RBCs (hRBCs)”, “donkey-anti-human” for “goat-anti-mouse”, “PBS+E.” for “PBS +E.”, “Flow” for “How”
Binding activities of humanized mAbs were determined using a cell-based ELISA assay with human OVIO-hCD47 cells expressing cell surface human CD47. OVIO hCD47 cells were grown in IMDM medium containing 10% heat inactivated fetal bovine serum (BioWest; S01520). […] Reactions were terminated by the addition of HCl to 0.7N, and absorbance at 450 nm is determined using a Tecan model Infinite M200 plate reader. The apparent binding affinities of these clones to human OVIO-hCD47 cells was determined by non-linear fit (Prism GraphPad software).

human CD47 [3] = molecular target: T5, human CD47; assay: cell-based ELISA on OV10-hCD47 tumor cells, apparent affinity
Experimental: Binding activities of humanized mAbs were determined using a cell-based ELISA assay with human OVIO-hCD47 cells expressing cell surface human CD47. OVIO hCD47 cells were grown in IMDM medium containing 10% heat inactivated fetal bovine serum (BioWest; S01520). One day before assay, 3×10⁴ cells were plated in 96 well cell bind plates (Corning #3300, VWR #66025-626) and were 95-100% confluent at the time of assay. Cells were washed, and various concentrations of purified antibodies added in IMDM 37° C. for 1 hr in 95%02 I 5% CO₂. Cells were then washed with media and incubated for an additional hour at 37° C. with HRP labeled secondary anti-human antibody (Promega) diluted 1/2500 in media. Cells were washed three times with PBS, and the peroxidase substrate 3,3′, 5,5′-tetramethylbenzidine is added (Sigma; Catalog #T4444). Reactions were terminated by the addition of HCl to 0.7N, and absorbance at 450 nm is determined using a Tecan model Infinite M200 plate reader. The apparent binding affinities of these clones to human OVIO-hCD47 cells was determined by non-linear fit (Prism GraphPad software).

human CD47 [4] = molecular target: T5, human CD47; assay: flow cytometry on human RBCs, apparent affinity
Experimental: as §1, with “humanized” for “murine”, “to” for “to mouse CD47 on murine RBCs (mRBCs) and”, “RBCs” for “RBCs (hRBCs)”, “donkey-anti-human” for “goat-anti-mouse”, “PBS+E.” for “PBS +E.”, “Flow” for “How”

rat CD47 = molecular target: T3, rat CD47; assay: flow cytometry on rat RBCs, apparent affinity by non-linear fit of median fluorescence

Kd (dog CD47) [pM] | Kd (mouse CD47) [pM] | Kd (human CD47 [1]) [pM] | Kd (pig CD47) [pM] | Kd (human CD47 [3]) [pM] | Kd (human CD47 [4]) [pM] | Binder | further results
101 | < 13 | 384 | 60 | – | – | Vx12 (antibody, V domains shown, Murine mAb; also called murine anti-CD47 mAb Vx12) VH: QVQLLQSGAQLVKPGTSMKLSCKASGYTFTNYFLYWVKQRPGQGLEWIGDINPNAGSTNLNERFKSKATLTVDKSSSTAYLQLSGLTSEDSAVYYCTRGGYTMDYWGQGTSVTVSS VL: DVVMTQIPLSLPVSLGDQASISCRSSQSLVHSNGNTYLHWYLQKPGQSPKLLIYKVSNRFSGVPDRFSGSGSGTDFTLKISRVEAEDLGVYFCSQSTHVPRTFGGGTKLEIK | –
– | – | – | – | – | – | humVx10_01_IgG4PE (antibody, V domains shown, Humanized full length IgG4 PE, human kappa) VH: QVQLVQSGAEVKKPGASVQVSCKASGYTFTNYWIHWLRQAPGQGLEWMGYIDPNTVYTDYNQRFEDRVTMTSDTSISTAYMELSSLRSDDTAVYYCARGGKRGVDSWGQATLVTVSS VL: DIVMTQSPLSLPVTPGEPASISCRSSQSLENSNGDTYLNWYLQKPGQSPRLLIYRVSNRFSGVPDRFSGSGSGTDFTLKISRVEADDVGIYYCLQVSHVPWTFGQGTKLEIKR | binding result (human CD47 [2]): binds
– | – | – | – | 69 | 90 | Vx12_mh_IgG1N297Q (antibody, Mouse-human chimeric full length IgG, human IgG1-N297Q and human kappa, made in CHO cells; also called chimeric Vx12 IgG1 N297Q) heavy: not shown light: DVVMTQIPLSLPVSLGDQASISCRSSQSLVHSNGNTYLHWYLQKPGQSPKLLIYKVSNRFSGVPDRFSGSGSGTDFTLKISRVEAEDLGVYFCSQSTHVPRTFGGGTKLEIKRTVAAPSVFIFPPSDEQLKSGTASVVCLLNNFYPREAKVQWKVDNALQSGNSQESVTEQDSKDSTYSLSSTLTLSKADYEKHKVYACEVTHQGLSSPVTKSFNRGEC | –
– | – | – | – | 70 | 120 | Vx12_mh_IgG4PE (antibody, Mouse-human chimeric full length IgG, human IgG4 PE and human kappa, made in CHO cells; also called chimeric Vx12 IgG4PE) heavy: not shown light: DVVMTQIPLSLPVSLGDQASISCRSSQSLVHSNGNTYLHWYLQKPGQSPKLLIYKVSNRFSGVPDRFSGSGSGTDFTLKISRVEAEDLGVYFCSQSTHVPRTFGGGTKLEIKRTVAAPSVFIFPPSDEQLKSGTASVVCLLNNFYPREAKVQWKVDNALQSGNSQESVTEQDSKDSTYSLSSTLTLSKADYEKHKVYACEVTHQGLSSPVTKSFNRGEC | –
– | – | – | – | 87 | 40 | Vx10_mh_IgG1N297Q (antibody, Mouse-human chimeric full length IgG, human IgG1-N297Q and human kappa, made in CHO cells; also called chimeric Vx10 IgG1 N297Q) heavy: not shown light: DVVMTQTPLSLPVSLGDQASISCRSSQSLENSNGDTYLNWYLQKPGQSPQLLIYRVSNRFSGVLDRFSGSGSGTDFTLQISRVEAEDLGVYFCLQVSHVPWTFGGGTNLEIKRTVAAPSVFIFPPSDEQLKSGTASVVCLLNNFYPREAKVQWKVDNALQSGNSQESVTEQDSKDSTYSLSSTLTLSKADYEKHKVYACEVTHQGLSSPVTKSFNRGEC | –
– | – | – | – | 91 | 48 | Vx10_mh_IgG4PE (antibody, Mouse-human chimeric full length IgG, human IgG4 PE and human kappa, made in CHO cells; also called chimeric Vx10 IgG4PE) heavy: not shown light: DVVMTQTPLSLPVSLGDQASISCRSSQSLENSNGDTYLNWYLQKPGQSPQLLIYRVSNRFSGVLDRFSGSGSGTDFTLQISRVEAEDLGVYFCLQVSHVPWTFGGGTNLEIKRTVAAPSVFIFPPSDEQLKSGTASVVCLLNNFYPREAKVQWKVDNALQSGNSQESVTEQDSKDSTYSLSSTLTLSKADYEKHKVYACEVTHQGLSSPVTKSFNRGEC | –
1620 | – | 874 | 102 | – | – | Vx13 (antibody, V domains shown, Murine mAb; also called murine anti-CD47 mAb Vx13) VH: EVQLQQSGPEVVKPGASVRISCKASDYTFTNYYIHWVRQRPGQGLEWIGWIYPGNNNNKYNEKFKGKATLTEDTSSSTAYMQLSSLTSEDSAVYFCARGGYTMDYWGQG VL: DVLMTQTPLSLPVSLGDQASISCRSSQSLVHSNGNTYLHWYLQKPGQSPNLLIYKVSNRFSGVPDRFSGSGSGTDFTLKINRVETEDLGIYFCSQSTHVLTFGAG | –
714 | 31 | 459 | 123 | – | – | Vx10 (antibody, V domains shown, Murine mAb; also called murine anti-CD47 mAb Vx10) VH: QVQLQQSGAELAKPGASVKMSCKASGYTFTNYWIHWIKQRPGQGLEWIGYIDPNTVYTDYNQRFEDKATLTADKSSNTAYMQLNSLTSEDSAVYYCSRGGKRGVDSWGQGTSVTVSS VL: DVVMTQTPLSLPVSLGDQASISCRSSQSLENSNGDTYLNWYLQKPGQSPQLLIYRVSNRFSGVLDRFSGSGSGTDFTLQISRVEAEDLGVYFCLQVSHVPWTFGGGTNLEIK | Kd (rat CD47): 179 pM
< 13 | 246 | 91 | – | – | – | Vx11 (antibody, V domains shown, Murine mAb; also called murine anti-CD47 mAb Vx11) VH: EVQLQQSGAQLVKPGTSMKLSCKASGYTFTNYFLYWVKQRPGQGLEWIGDINPNAGSTNLNERFKSKATLTVDKSSSTAYLQLSGLTSEDSAVYYCTRGGYTMDYWGQGTSVTVSS VL: DVVMTQTPLSLPVSLGDQASISCRSSQSLENSNGDTYLNWYLQKPGQSPQLLIYRVSNRFSGVLDRFSGSGSGTDFTLQISRVEAEDLGVYFCLQVSHVPWTFGGGTNLEIK | Kd (rat CD47): 231 pM
